Test results: patent US20240252614A1 (Pfizer, published 2024)

Assays:
hMPV139 = target: T1, hMPV139 (hMPV B, UniProt Q6WB98 19-102); experiment: BLI, no stress
T1 construct: T49I, L141C-A161C, T411C-Q434C

hMPV118 [1] = target: T2, hMPV118 (hMPV B, UniProt Q6WB98 19-102); experiment: BLI, no stress
T2 construct: T49I, T150C-R156C

hMPV137 [2] = target: T3, hMPV137 (hMPV B, UniProt Q6WB98 19-102); experiment: BLI, no stress
T3 construct: T49I, A140C-S149C

hMPV130 = target: T4, hMPV130 (hMPV B, UniProt Q6WB98 19-102); experiment: BLI, no stress
T4 construct: L141C-A161C, G239A, T411C-Q434C, A459P

hMPV142 [3] = target: T5, hMPV142 (hMPV B, UniProt Q6WB98 19-102); experiment: BLI, no stress
T5 construct: L141C-A161C, S149T, A459P

hMPV124 [4] = target: T6, hMPV124 (hMPV B, UniProt Q6WB98 19-102); experiment: BLI, no stress
T6 construct: L141C-A161C, T411C-Q434C, A459P

hMPV119 [5] = target: T7, hMPV119 (hMPV B, UniProt Q6WB98 19-102); experiment: BLI, no stress
T7 construct: T49I, T150C-R156C, A459P

hMPV121 = target: T8, hMPV121 (hMPV B, UniProt Q6WB98 19-102); experiment: BLI, no stress
T8 construct: L141C-A161C, T411C-Q434C

hMPV117 [6] = target: T9, hMPV117 (hMPV B, UniProt Q6WB98 19-102); experiment: BLI, no stress
T9 construct: T150C-R156C, A459P

hMPV131 [7] = target: T10, hMPV131 (hMPV B, UniProt Q6WB98 19-102); experiment: BLI, no stress
T10 construct: T49I, L141C-A161C, G239A, T411C-Q434C, A459P

hMPV123 = target: T11, hMPV123 (hMPV B, UniProt Q6WB98 19-102); experiment: BLI, 56C stress
T11 construct: A140C-S149C, G239A, T411C-Q434C
Experimental: (§1) All measurements were conducted at 30° C. temperature in 96-well black plates (Corning, Corning, NY) with a final volume of 240 μL per well at a constant agitation rate of 1000 RPM.
(§2) Conformation integrity of hMPV B F protein mutants were evaluated by a thermal stress experiment. Crude cell culture supernatants were normalized based on the results of the titer quantitation and then incubated for 1 hour at room temperature and two higher temperatures. For the testing of hMPV B single mutants, the two temperatures were 53° C. and 56° C. After the incubation, the protein mutants were probed with prefusion specific monoclonal antibody hMPV-2 by OCTET HTX. Anti-Human IgG Fc Capture (AHC) biosensors were first equilibrated in PB before being dipped into more PB for to establish the initial baseline. Biosensors were incubated with hMPV-2 before being equilibrated in PB to establish the experimental baseline. The mAb-bound biosensors were then dipped into the thermal stresses cell culture supernatants for 5 minutes.

hMPV136 = target: T12, hMPV136 (hMPV B, UniProt Q6WB98 19-102); experiment: BLI, 56C stress
T12 construct: A140C-S149C, A459P
Experimental: as §1, §2

hMPV138 = target: T13, hMPV138 (hMPV B, UniProt Q6WB98 19-102); experiment: BLI, 56C stress
T13 construct: T49I, A140C-S149C, A459P
Experimental: as §1, §2

hMPV118 [8] = target: T2, hMPV118; experiment: BLI, 56C stress
Experimental: as §1, §2

hMPV133 = target: T14, hMPV133 (hMPV B, UniProt Q6WB98 19-102); experiment: BLI, 56C stress
T14 construct: T49I, L141C-A161C, S149T, G239A, T411C-Q434C, A459P
Experimental: as §1, §2

hMPV125 = target: T15, hMPV125 (hMPV B, UniProt Q6WB98 19-102); experiment: BLI, 56C stress
T15 construct: L141C-A161C, G239A, T411C-Q434C
Experimental: as §1, §2

hMPV137 [9] = target: T3, hMPV137; experiment: BLI, 56C stress
Experimental: as §1, §2

hMPV134 = target: T16, hMPV134 (hMPV B, UniProt Q6WB98 19-102); experiment: BLI, 56C stress
T16 construct: T49I, L141C-A161C, S149T, G239A, T365I, T411C-Q434C, A459P
Experimental: as §1, §2

hMPV142 [10] = target: T5, hMPV142; experiment: BLI, 56C stress
Experimental: as §1, §2

hMPV140 = target: T17, hMPV140 (hMPV B, UniProt Q6WB98 19-102); experiment: BLI, 56C stress
T17 construct: T49I, L141C-A161C, T411C-Q434C, A459P
Experimental: as §1, §2

hMPV144 = target: T18, hMPV144 (hMPV B, UniProt Q6WB98 19-102); experiment: BLI, 56C stress
T18 construct: T49I, L141C-A161C, S149T, A459P
Experimental: as §1, §2

hMPV128 = target: T19, hMPV128 (hMPV B, UniProt Q6WB98 19-102); experiment: BLI, 56C stress
T19 construct: T49I, A140C-S149C, G239A, T411C-Q434C, A459P
Experimental: as §1, §2

hMPV124 [11] = target: T6, hMPV124; experiment: BLI, 56C stress
Experimental: as §1, §2

hMPV135 = target: T20, hMPV135 (hMPV B, UniProt Q6WB98 19-102); experiment: BLI, 56C stress
T20 construct: T49I, S149T, A459P
Experimental: as §1, §2

hMPV119 [12] = target: T7, hMPV119; experiment: BLI, 56C stress
Experimental: as §1, §2

hMPV126 = target: T21, hMPV126 (hMPV B, UniProt Q6WB98 19-102); experiment: BLI, 56C stress
T21 construct: T49I, T150C-R156C, G239A, A459P
Experimental: as §1, §2

hMPV122 = target: T22, hMPV122 (hMPV B, UniProt Q6WB98 19-102); experiment: BLI, 56C stress
T22 construct: A140C-S149C, T411C-Q434C, A459P
Experimental: as §1, §2

hMPV117 [13] = target: T9, hMPV117; experiment: BLI, 56C stress
Experimental: as §1, §2

hMPV129 = target: T23, hMPV129 (hMPV B, UniProt Q6WB98 19-102); experiment: BLI, 56C stress
T23 construct: T49I, A140C-S149C, G239A, T365I, T411C-Q434C, A459P
Experimental: as §1, §2

hMPV127 = target: T24, hMPV127 (hMPV B, UniProt Q6WB98 19-102); experiment: BLI, 56C stress
T24 construct: A140C-S149C, G239A, T411C-Q434C, A459P
Experimental: as §1, §2

hMPV131 [14] = target: T10, hMPV131; experiment: BLI, 56C stress
Experimental: as §1, §2

B1: hMPV-2 mAb (antibody, V domains shown)
VH: QVQLQQSGAEVKKPGASVKVSCKASGYTFTSYGISWVRQAPGQGLEWMGWISGYNGNTNYAQTFQGTFTMTTDTSTSTAYMELRRLRSGDTAVYYCARDRYYASGSYNGMDVWGQGTTVTVSS
VL: QSALTQPPSASGAPGQRVTVSCSGSSSNVGSSSVYWYQQLPGTAPKLLIYRNNQRPSGVPDRFSGSKSGTSASLAISGLRSEDEADYYCAAWDDSLSGWVFGGGTKLTVLG
notes: human IgG1
- Response Shift (hMPV139): 0.699 nm
- Response Shift (hMPV118 [1]): 0.844 nm
- Response Shift (hMPV137 [2]): 0.663 nm
- Response Shift (hMPV130): 0.71 nm
- Response Shift (hMPV142 [3]): 0.731 nm
- Response Shift (hMPV124 [4]): 0.833 nm
- Response Shift (hMPV119 [5]): 0.864 nm
- Response Shift (hMPV121): 0.842 nm
- Response Shift (hMPV117 [6]): 0.723 nm
- Response Shift (hMPV131 [7]): 0.727 nm
- Response Shift (hMPV123): 0.559 nm
- Response Shift (hMPV136): 0.541 nm
- Response Shift (hMPV138): 0.663 nm
- Response Shift (hMPV118 [8]): 0.801 nm
- Response Shift (hMPV133): 0.616 nm
- Response Shift (hMPV125): 0.785 nm
- Response Shift (hMPV137 [9]): 0.626 nm
- Response Shift (hMPV134): 0.665 nm
- Response Shift (hMPV142 [10]): 0.706 nm
- Response Shift (hMPV140): 0.66 nm
- Response Shift (hMPV144): 0.67 nm
- Response Shift (hMPV128): 0.769 nm
- Response Shift (hMPV124 [11]): 0.766 nm
- Response Shift (hMPV135): 0.724 nm
- Response Shift (hMPV119 [12]): 0.828 nm
- Response Shift (hMPV126): 0.73 nm
- Response Shift (hMPV122): 0.686 nm
- Response Shift (hMPV117 [13]): 0.64 nm
- Response Shift (hMPV129): 0.632 nm
- Response Shift (hMPV127): 0.674 nm
- Response Shift (hMPV131 [14]): 0.657 nm
